Experimental data reported in the supplement of paper PMC11246515.
± gives the standard deviation of the averaged measurements.

Test: total protein half-life in vivo (active degradation + dilution); higher = more stable protein
[1] = E. coli NCM3722 delta-clpP delta-lon delta-hslV, growth: N-lim chemostat, doubling time 6 h
[2] = E. coli NCM3722 delta-hslV, growth: N-lim chemostat, doubling time 6 h
[3] = E. coli NCM3722 delta-lon, growth: N-lim chemostat, doubling time 6 h
[4] = E. coli NCM3722 delta-smpB, growth: N-lim chemostat, doubling time 6 h
[5] = wild type E. coli NCM3722, growth: C-lim chemostat, doubling time 3 h
[6] = wild type E. coli NCM3722, growth: C-lim chemostat, doubling time 6 h
[7] = wild type E. coli NCM3722, growth: C-lim chemostat, doubling time 12 h
[8] = wild type E. coli NCM3722, growth: N-lim chemostat, doubling time 6 h
[9] = wild type E. coli NCM3722, growth: N-lim chemostat, doubling time 12 h
[10] = wild type E. coli NCM3722, growth: P-lim chemostat, doubling time 6 h
[11] = wild type E. coli NCM3722, growth: P-lim chemostat, doubling time 12 h
[12] = E. coli NCM3722 delta-clpP, growth: N-lim chemostat, doubling time 6 h

Row | Sequence | total protein half-life in vivo [1] [h] | total protein half-life in vivo [2] [h] | total protein half-life in vivo [3] [h] | total protein half-life in vivo [4] [h] | total protein half-life in vivo [5] [h] | total protein half-life in vivo [6] [h] | total protein half-life in vivo [7] [h] | total protein half-life in vivo [8] [h] | total protein half-life in vivo [9] [h] | total protein half-life in vivo [10] [h] | total protein half-life in vivo [11] [h] | total protein half-life in vivo [12] [h]
1 | MTTVYTLVSWLAILGYWLLIAGVTLRILMKRRAVPSAMAWLLIIYILPLVGIIAYLAVGELHLGKRRAERARAMWPSTAKWLNDLKACKHIFAEENSSVAAPLFKLCERRQGIAGVKGNQLQLMTESDDVMQALIRDIQLARHNIEMVFYIWQPGGMADQVAESLMAAARRGIHCRLMLDSAGSVAFFRSPWPELMRNAGIEVVEALKVNLMRVFLRRMDLRQHRKMIMIDNYIAYTGSMNMVDPRYFKQDAGVGQWIDLMARMEGPIATAMGIIYSCDWEIETGKRILPPPPDVNIMPFEQASGHTIHTIASGPGFPEDLIHQALLTAAYSAREYLIMTTPYFVPSDDLLHAICTAAQRGVDVSIILPRKNDSMLVGWASRAFFTELLAAGVKIYQFEGGLLHTKSVLVDGELSLVGTVNLDMRSLWLNFEITLAIDDKGFGADLAAVQDDYISRSRLLDARLWLKRPLWQRVAERLFYFFSPLL [P0A6H8] | 6.74 ± 0.71 | 7.06 ± 0.36 | 6.87 ± 0.85 | 6.25 ± 0.099 | 3.38 ± 0.26 | 6.636 ± 0.027 | 13.5 ± 0.82 | 6.16 ± 0.22 | 13.1 ± 1.4 | 6.275 ± 0.026 | 13.1 ± 0.13 | 
2 | MTVAYIAIGSNLASPLEQVNAALKALGDIPESHILTVSSFYRTPPLGPQDQPDYLNAAVALETSLAPEELLNHTQRIELQQGRVRKAERWGPRTLDLDIMLFGNEVINTERLTVPHYDMKNRGFMLWPLFEIAPELVFPDGEMLRQILHTRAFDKLNKW |  | 4.41 | 4.82 |  | 3.22 ± 0.3 |  | 10.3 | 3.76 |  | 5.3 | 10.7 | 4.02
3 | MTVNSSRNALKRRTWALFMFFFLPGLLMASWATRTPAIRDILSVSIAEMGGVLFGLSIGSMSGILCSAWLVKRFGTRNVILVTMSCALIGMMILSLALWLTSPLLFAVGLGVFGASFGSAEVAINVEGAAVEREMNKTVLPMMHGFYSLGTLAGAGVGMALTAFGVPATVHILLAALVGIAPIYIAIQAIPDGTGKNAADGTQHGEKGVPFYRDIQLLLIGVVVLAMAFAEGSANDWLPLLMVDGHGFSPTSGSLIYAGFTLGMTVGRFTGGWFIDRYSRVAVVRASALMGALGIGLIIFVDSAWVAGVSVVLWGLGASLGFPLTISAASDTGPDAPTRVSVVATTGYLAFLVGPPLLGYLGEHYGLRSAMLVVLALVILAAIVAKAVAKPDTKTQTAMENS |  |  |  |  |  |  |  |  |  |  | 7.65 | 4.21
4 | MTVPTYDKFIEPVLRYLATKPEGAAARDVHEAAADALGLDDSQRAKVITSGQLVYKNRAGWAHDRLKRAGLSQSLSRGKWCLTPAGFDWVASHPQPMTEQETNHLAFAFVNVKLKSRPDAVDLDPKADSPDHEELAKSSPDDRLDQALKELRDAVADEVLENLLQVSPSRFEVIVLDVLHRLGYGGHRDDLQRVGGTGDGGIDGVISLDKLGLEKVYVQAKRWQNTVGRPELQAFYGALAGQKAKRGVFITTSGFTSQARDFAQSVEGMVLVDGERLVHLMIENEVGVSSRLLKVPKLDMDYFE | 5.65 ± 1.1 | 3.84 ± 0.13 | 4.33 ± 0.27 | 3.561 ± 0.012 | 2.94 ± 0.055 | 4.88 ± 0.19 | 10.48 ± 0.072 | 3.599 ± 0.011 | 7.77 ± 3.8 | 4.92 ± 0.1 | 10.4 ± 0.31 | 4.02 ± 0.13
5 | MTVQTSKNPQVDIAEDNAFFPSEYSLSQYTSPVSDLDGVDYPKPYRGKHKILVIAADERYLPTDNGKLFSTGNHPIETLLPLYHLHAAGFEFEVATISGLMTKFEYWAMPHKDEKVMPFFEQHKSLFRNPKKLADVVASLNADSEYAAIFVPGGHGALIGLPESQDVAAALQWAIKNDRFVISLCHGPAAFLALRHGDNPLNGYSICAFPDAADKQTPEIGYMPGHLTWYFGEELKKMGMNIINDDITGRVHKDRKLLTGDSPFAANALGKLAAQEMLAAYAG | 5.25 ± 1.1 | 4.05 ± 0.35 | 4.62 ± 0.19 | 4.27 ± 0.24 | 2.88 ± 0.26 | 5.19 ± 0.35 | 10.6 ± 0.23 | 3.97 ± 0.85 | 7.51 ± 0.27 | 5.31 ± 0.43 | 10.5 ± 1.5 | 5.29 ± 1.6
6 | MTVRILAVCGNGQGSSMIMKMKVDQFLTQSNIDHTVNSCAVGEYKSELSGADIIIASTHIAGEITVTGNKYVVGVRNMLSPADFGPKLLEVIKEHFPQDVK | > 8 | 6.08 ± 2.4 |  | 3.21 | 2.24 | 3.71 | 4.74 ± 0.78 |  |  | 5.12 ± 1.8 | 9.81 | 5.3
